Test results: patent US20220088148A1 (HANMI PHARM, published 2022)
Positions count from the first letter of the chain named. Bridges are numbered along the chain shown (N, C = ends). Where no end group is shown, it is not given here. [ ]: non-standard residue; d: D form. The star is where a group is joined. Acetyl(2-(4-imidazolyl)) = O=C(Cc1c[nH]cn1)*; Aib = CC(C)(N)C(=O)O

T1: human GIP receptor (human, UniProt P48546 22-466)
T1 sequence (looked up): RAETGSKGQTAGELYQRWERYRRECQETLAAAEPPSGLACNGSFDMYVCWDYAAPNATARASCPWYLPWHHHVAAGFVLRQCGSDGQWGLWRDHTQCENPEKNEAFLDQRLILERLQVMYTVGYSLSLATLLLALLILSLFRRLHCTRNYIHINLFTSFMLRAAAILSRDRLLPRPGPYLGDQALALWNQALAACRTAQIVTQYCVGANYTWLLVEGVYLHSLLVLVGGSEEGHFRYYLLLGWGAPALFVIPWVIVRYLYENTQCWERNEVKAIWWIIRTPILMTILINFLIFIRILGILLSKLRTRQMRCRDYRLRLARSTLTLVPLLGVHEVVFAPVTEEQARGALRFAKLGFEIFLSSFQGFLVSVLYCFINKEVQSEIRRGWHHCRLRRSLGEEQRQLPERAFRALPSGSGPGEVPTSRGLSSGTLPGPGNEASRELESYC

B1: triple agonist of SEQ ID NO: 64 (peptide)
peptide: Y[Aib]QGTFTSDYSKYLDECAAKEFVQWLLDHHPSSGQPPPS
modifications: bridge 16-20; ends not checked
B2: triple agonist of SEQ ID NO: 34 (peptide)
peptide: H[Aib]QGTFTSDYSKYLDEKRQKEFVNWLLAQKC
modifications: bridge 16-20
B3: triple agonist of SEQ ID NO: 66 (peptide)
peptide: Y[Aib]QGTFTSDYSKYLDECRAKDFVQWLLDHHPSSGQPPPS
modifications: bridge 16-20; ends not checked
B4: triple agonist of SEQ ID NO: 50 (peptide)
peptide: H[Aib]QGTFTSDYSKYLDEKRAKEFVQWLLDHHPSSGQPPPSC
modifications: bridge 16-20; ends not checked
B5: triple agonist of SEQ ID NO: 59 (peptide)
peptide: [Acetyl(2-(4-imidazolyl))][Aib]QGTFTSDYSICMDEKHQKDFVNWLLNTK
modifications: bridge 16-20; ends not checked
B6: triple agonist of SEQ ID NO: 51 (peptide)
peptide: H[Aib]QGTFTSDYSKYLDEKRQKEFVQWLLNTC
modifications: bridge 16-20; ends not checked
B7: triple agonist of SEQ ID NO: 58 (peptide)
peptide: H[Aib]QGTFTSDYSKYLDEKRQKEFVQWLLNTKC
modifications: bridge 16-20; ends not checked
B8: triple agonist of SEQ ID NO: 43 (peptide)
peptide: Y[Aib]QGTFTSDYSKYLDEKRAKEFVQWLLDHHCSSGQPPPS
modifications: bridge 16-20
B9: triple agonist of SEQ ID NO: 68 (peptide)
peptide: Y[Aib]QGTFTSDYSKCLDEKAAKEFVQWLLDHHPSSGQPPPS
modifications: bridge 16-20; ends not checked
B10: triple agonist of SEQ ID NO: 60 (peptide)
peptide: [Acetyl(2-(4-imidazolyl))][Aib]QGTFTSDYSIAMDEKHCKDFVNWLLNTK
modifications: bridge 16-20; ends not checked
B11: triple agonist of SEQ ID NO: 52 (peptide)
peptide: H[Aib]QGTFTSDYSKYLDEKRQKEFVQWLLDTC
modifications: bridge 16-20; ends not checked
B12: triple agonist of SEQ ID NO: 1 (peptide)
peptide: H[Aib]QGTFTSDVSSYLDGQAAKEFIAWLVKGC
B13: triple agonist of SEQ ID NO: 6 (peptide)
peptide: H[Aib]QGTFTSDVSSYLDGQAAKEFVAWLLKGC
modifications: ends and bridges not checked
B14: triple agonist of SEQ ID NO: 61 (peptide)
peptide: [Acetyl(2-(4-imidazolyl))][Aib]QGTFTSDYSIAMDEIACKDFVNWLLNTK
modifications: bridge 16-20; ends not checked
B15: triple agonist of SEQ ID NO: 42 (peptide)
peptide: Y[Aib]QGTFTSDYSKYLDEKRAKEFVQWLLDHHPSSGQPPPSC
modifications: bridge 16-20
B16: triple agonist of SEQ ID NO: 65 (peptide)
peptide: H[Aib]QGTFTSDYSKCLDEKRAKEFVQWLLDHHPSSGQPPPS
modifications: bridge 16-20; ends not checked
B17: triple agonist of SEQ ID NO: 54 (peptide)
peptide: H[Aib]EGTFTSDYSIAMDEIHQKDFVDWLLAEC
modifications: bridge 16-20; ends not checked
B18: triple agonist of SEQ ID NO: 44 (peptide)
peptide: HGQGTFTSDCSKQLDGQAAQEFVAWLLAGGPSSGAPPPS
B19: triple agonist of SEQ ID NO: 48 (peptide)
peptide: B18 peptide with Q13Y, A18R, E21D, A24N
B20: triple agonist of SEQ ID NO: 46 (peptide)
peptide: B18 peptide with Q13Y, G16E, A18H
B21: triple agonist of SEQ ID NO: 47 (peptide)
peptide: B18 peptide with Q13Y, A18R
B22: triple agonist of SEQ ID NO: 45 (peptide)
peptide: B18 peptide with Q13Y, L14M, E21D
B23: triple agonist of SEQ ID NO: 4 (peptide)
peptide: H[Aib]QGTFTSDVSSYLLGQQQKEFIAWLVKGC
B24: triple agonist of SEQ ID NO: 7 (peptide)
peptide: H[Aib]QGTFTSDVSKYLDGQAAKEFVAWLLKGC
modifications: ends and bridges not checked
B25: triple agonist of SEQ ID NO: 55 (peptide)
peptide: H[Aib]QGTFTSDYSIAMDEIHQKDFVNWLLAQC
modifications: bridge 16-20
B26: triple agonist of SEQ ID NO: 5 (peptide)
peptide: H[Aib]QGTFTSDVSSYLLGQQQKEFIAWLVKGGGPSSGAPPPSC
B27: triple agonist of SEQ ID NO: 35 (peptide)
peptide: H[Aib]QGTFTSDYSIAMDEIHQKDFVNWLLNTKC
modifications: bridge 16-20
B28: triple agonist of SEQ ID NO: 69 (peptide)
peptide: Y[Aib]QGTFTSDYSKCLDERAAKEFVQWLLDHHPSSGQPPPS
modifications: bridge 16-20; ends not checked
B29: triple agonist of SEQ ID NO: 49 (peptide)
peptide: {Acetyl(2-(4-imidazolyl))}-[Aib]QGTFTSDYSICMDEIHQKDFVNWLLNTK
modifications: bridge 15-19
B30: triple agonist of SEQ ID NO: 57 (peptide)
peptide: H[Aib]QGTFTSDYSIAMDEIHQKDFVNWLLNTC
modifications: bridge 16-20; ends not checked
B31: triple agonist of SEQ ID NO: 53 (peptide)
peptide: H[Aib]EGTFTSDYSIAMDEIHQKDFVNWLLAQC
modifications: bridge 16-20

Legend:
Test in all cases: cell-based or functional assay
human GLP-1 receptor = human GLP-1 receptor (human, UniProt P43220 24-463)
human GCG receptor = human GCG receptor (human, UniProt P47871 26-477)
Sequence of human GCG receptor (P47871 26-477): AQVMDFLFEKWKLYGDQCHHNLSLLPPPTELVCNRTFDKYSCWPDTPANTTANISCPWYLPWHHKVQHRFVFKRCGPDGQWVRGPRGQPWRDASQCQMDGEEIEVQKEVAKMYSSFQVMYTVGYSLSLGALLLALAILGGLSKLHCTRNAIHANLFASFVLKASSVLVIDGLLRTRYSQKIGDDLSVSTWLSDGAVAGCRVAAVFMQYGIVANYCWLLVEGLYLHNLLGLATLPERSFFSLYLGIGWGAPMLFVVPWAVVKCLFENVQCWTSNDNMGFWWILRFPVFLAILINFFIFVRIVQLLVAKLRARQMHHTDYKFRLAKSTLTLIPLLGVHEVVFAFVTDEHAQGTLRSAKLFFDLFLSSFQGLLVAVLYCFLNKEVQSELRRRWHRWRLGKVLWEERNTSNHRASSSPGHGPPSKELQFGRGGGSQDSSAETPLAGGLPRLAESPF

human GIP receptor = molecular target: T1, human GIP receptor

Row | Binder | In vitro activity (%) vs. GLP-1, cAMP EC50 (human GLP-1 receptor) [%] | In vitro activity (%) vs. Glucagon, cAMP EC50 (human GCG receptor) [%] | In vitro activity (%) vs. GIP, cAMP EC50 (human GIP receptor) [%]
1 | B1 | 64.6 | 60.1 | 92.9
2 | B2 | 19.1 | 0.92 | 0.6
3 | B3 | 15.8 | 172 | 17.2
4 | B4 | 67.4 | 50.5 | 2.7
5 | B5 | 40.3 | < 0.1 | 4
6 | B6 | 14.4 | 2 | 0.1
7 | B7 | 39.1 | 2.6 | 0.2
8 | B8 | 12.6 | 88.4 | 3.7
9 | B9 | 27.9 | 8.8 | 107
10 | B10 | 106 | < 0.1 | 8.2
11 | B11 | 44.1 | 7.5 | 0.3
12 | B12 | 3.2 | < 0.1 | < 0.1
13 | B13 | 17 | < 0.1 | < 0.1
14 | B14 | 59.8 | < 0.1 | 2.8
15 | B15 | 33.9 | 206 | 7.8
16 | B16 | 95.4 | 25.2 | 11.6

Row | Binder | In vitro activity (%) vs. GLP-1, cAMP EC50 (human GLP-1 receptor) [%] | In vitro activity (%) vs. Glucagon, cAMP EC50 (human GCG receptor) [%] | In vitro activity (%) vs. GIP, cAMP EC50 (human GIP receptor) [%]
17 | B17 | 30.6 | 1.4 | 0.1
18 | B18 | 1.3 | < 0.1 | < 0.1
19 | B19 | 1.5 | < 0.1 | < 0.1
20 | B20 | 1.4 | < 0.1 | < 0.1
21 | B21 | 2.4 | < 0.1 | < 0.1
22 | B22 | 6.6 | < 0.1 | < 0.1
23 | B23 | 8.5 | < 0.1 | < 0.1
24 | B24 | 13.7 | < 0.1 | < 0.1
25 | B25 | 27.1 | 0.7 | 2.4
26 | B26 | 42.1 | < 0.1 | < 0.1
27 | B27 | 7.5 | < 0.1 | 1.3
28 | B28 | 24.3 | 9.6 | 62.8
29 | B29 | 29.8 | < 0.1 | 3.3
30 | B30 | 11.7 | < 0.1 | 0.3
31 | B31 | 161 | 8.4 | 1.3
